Biological target: RBD-mFc (Sino Biologicals) (SARS-CoV-2, wild type (Wuhan-Hu-1 …, UniProt P0DTC2))
Experiment: BLI

B1: STE90-C11 Fab (Fab, V domains shown)
VH: QVQLVESGGGLVQPGGSLRLSCAASGLTVSSNYMSWVRQAPGKGLEWVSVIYSGGSTYYADSVKGRFTISRDDSKNTLYLQMNSLRAEDTAVYYCARDVADAFDIWGQGTMVTVSS
VL: DIVMTQSPSFLSASVGDRVTITCRASQGISSYLAWYQQKPGKAPKLLIYAASTLQSGVPSRFSGSGSGTEFTLTISSLQPEDFATYYCQQLNSYPPFTFGPGTKVDIK
With B1 the Kd was 8.1 nM.

From article doi:10.1101/2020.12.03.409318 (bioRxiv, 2020)
